# Literature values in paper PMC7290885.
# Like-named read-outs stand apart in the source and are kept apart here.
# Experiments:
# GLP-1R (Homo sapiens) [1] = target: GLP-1R (Homo sapiens) (UniProt P43220)
# GLP-1R (Homo sapiens) [2] = target: GLP-1R (Homo sapiens) (UniProt P43220); remark: listed apart in the source
# GLP-1R (Homo sapiens) [3] = target: GLP-1R (Homo sapiens) (UniProt P43220); remark: listed apart in the source
# GLP-1R (Homo sapiens) [4] = target: GLP-1R (Homo sapiens) (UniProt P43220); remark: listed apart in the source
# Chain of UniProt P43220 (P43220 24-463): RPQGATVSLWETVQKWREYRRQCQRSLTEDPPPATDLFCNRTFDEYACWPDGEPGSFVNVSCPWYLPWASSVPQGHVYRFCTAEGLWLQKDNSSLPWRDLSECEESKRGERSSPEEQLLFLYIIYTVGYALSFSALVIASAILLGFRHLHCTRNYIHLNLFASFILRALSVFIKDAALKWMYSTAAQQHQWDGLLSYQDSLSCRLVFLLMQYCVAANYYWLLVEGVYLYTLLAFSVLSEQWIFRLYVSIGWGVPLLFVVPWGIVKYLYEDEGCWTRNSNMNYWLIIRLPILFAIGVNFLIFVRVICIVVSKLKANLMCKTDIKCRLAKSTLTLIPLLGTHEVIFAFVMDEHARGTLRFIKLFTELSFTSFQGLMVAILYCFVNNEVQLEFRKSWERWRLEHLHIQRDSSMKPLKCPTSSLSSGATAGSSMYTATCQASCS
substance,measurement,setting,value
LCA-Di (exendin-4 derivative) (from UniProt P26349),Kd,GLP-1R (Homo sapiens) [1],71.7 nM
exendin-4 (from UniProt P26349),Kd,GLP-1R (Homo sapiens) [2],0.14 nM
LCA-M1 (exendin-4 derivative) (from UniProt P26349),Kd,GLP-1R (Homo sapiens) [3],0.47 nM
LCA-M2 (exendin-4 derivative) (from UniProt P26349),Kd,GLP-1R (Homo sapiens) [4],0.55 nM
